B1: mutant oligo no. 1 (dsDNA)
DNA 1: AAGGGGGGAGCCAGTGCCAGAAGAGCCAAGGACAGGT
DNA 2: ACCTGTCCTTGGCTCTTCTGGCACTGGCTCCCCCCTT
B2: mutant oligo no. 3 (dsDNA)
DNA 1: AACTCCTAAGCCAGTGCCAGAACAGCCAACCCCCCGT
DNA 2: ACGGGGGGTTGGCTGTTCTGGCACTGGCTTAGGAGTT
B3: mutant oligo no. 2 (dsDNA)
DNA 1: AACTCCTAAGCCAGTGCCAGAAAAAACAAGGACAGGT
DNA 2: ACCTGTCCTTGTTTTTTCTGGCACTGGCTTAGGAGTT

Each binder was assayed against Nuclear ferritin-H (K562 nuclear extract, crude or heat/proteinase K enriched) (Homo sapiens, UniProt P02794 P02794:2-183) (assay: competition; competes about as well as wt). Settings: protein: extract.
Method: Gel mobility shift assays. Gel retardation assays (i.e., gel shifts) were used to determine DNA binding of the extract proteins to the Rsa I (95 bp) fragment and synthetic oligonucleotides (Berg et al., (1989) Nucleic Acids Res 17, 8833-52; Fried & Crothers (1981) Nucleic Acids Res 9, 6505-25). Each reaction contained 0.5-2 ng of DNA, 1.0-5.0 ug of extract protein, 1.0-5.0 ug of poly dI:poly dC, 100 mM KCl, and binding buffer (Berg et al., (1989) Nucleic Acids Res 17, 8833-52). Unlabeled competitor oligonucleotides ranged from 15- to 2000-fold molar excess and were included in the reaction mixture with the probe before adding protein. Gels used for retardation assays were 4%, 5%, or 6% acrylamide and the running buffer was low ionic strength TAE (Berg et al., (1989) Nucleic Acids Res 17, 8833-52).
Definition of the binding site with competition gel shifts. To further localize the binding of ferritin, the 37 bp oligonucleotide was mutated in different places, replacing six nucleotides at a time with all A's, all C's, or all G's, with complementary nucleotide replacements in the opposing strand (FIG. 4A). A competition gel shift assay was done with the partially purified protein from heated K562 nuclear extract, in which each of the unlabeled mutant oligos as well as the native sequence was competed against the 32-P-labeled native sequence for binding.

Binding signal, ~1 fold:
B1, B2, B3
